Source: doi:10.1101/2024.08.28.609967 (bioRxiv, 2024)
Values belong to the binder of their own block, whether it stands above or below them.

B5: GFP-FIP200 C-terminal region (CTR) (residues 1429–1591) (domain or fragment, UniProt Q8TDY2-2 1429-1591, looked up)
chain: ADEGRVDSAMETSMMSVQENIHMLSEEKQRIMLLERTLQLKEEENKRLNQRLMSQSMSSVSSRHSEKIAIRDFQVGDLVLIILDERHDNYVLFTVSPTLYFLHSESLPALDLKPASGASRRPWVLGKVMEKEYCQAKKAQNRFKVPLGTKFYRVKAVSWNKKV
notes: FIP200 (RB1CC1), C-terminal region with the Claw domain and a portion of the coiled-coil, residues 1429-1591; also called GFP-tagged FIP200-CTR; GFP-FIP200(CTR); source: E. coli Rosetta pLysS, purified (His-Trap, TEV cleavage, SEC); not shown: His6, N-terminal, cleaved; GFP, N-terminal, kept

Columns and labels:
Conditions in all cases: both partners purified
[1] = molecular target: T1, mCherry-WIPI3 (UniProt Q5MNZ6 1-344); experiment: microscopy-based bead assay; GFP-trap agarose beads coated with GFP-tagged bait (ULK1 complex, ATG13/101, FIP200, ULK1 K46I, ATG13 IDR and its fragments or variants; 5 uM), mCherry-tagged WIPI proteins as prey; 25 mM Tris-HCl pH 7.4, 150 mM NaCl, 1 mM DTT; confocal imaging
T1 construct: also called mCherry-tagged WIPI3; source: E. coli Rosetta pLysS, purified (His-Trap, SEC); not shown: mCherry, N-terminal, kept

[2] = molecular target: T2, GST-WIPI3 (UniProt Q5MNZ6 1-344); experiment: microscopy-based bead assay; glutathione beads coated with GST-tagged WIPI2d or WIPI3 (5 uM), mCherry-tagged ATG13 constructs as prey; 25 mM Tris-HCl pH 7.4, 150 mM NaCl, 1 mM DTT; confocal imaging
T2 construct: WIPI3 (WDR45B); Addgene numbers are tied to WIPI1/2/3/4 by their order in the list; also called GST-tagged WIPI3; GST-TEV-WIPI3; source: FreeStyle HEK293F cells, transfected, purified (glutathione beads, SEC); not shown: GST, N-terminal, kept

[3] = molecular target: T3, GST-TEX264 (28–313aa) (human, UniProt Q9Y6I9 28-313); experiment: microscopy-based bead assay; glutathione beads coated with GST-tagged cargo receptors (5 uM), GFP-FIP200 CTR (1429-1591) as prey, 30 min; 25 mM Tris-HCl pH 7.4, 150 mM NaCl, 1 mM DTT; confocal imaging
T3 construct: TEX264, cytosol-exposed domain, residues 28-313, synthetic gene; also called GST-tagged TEX264; source: E. coli Rosetta pLysS, purified (glutathione beads, SEC); not shown: GST, N-terminal, kept
T3 sequence (looked up): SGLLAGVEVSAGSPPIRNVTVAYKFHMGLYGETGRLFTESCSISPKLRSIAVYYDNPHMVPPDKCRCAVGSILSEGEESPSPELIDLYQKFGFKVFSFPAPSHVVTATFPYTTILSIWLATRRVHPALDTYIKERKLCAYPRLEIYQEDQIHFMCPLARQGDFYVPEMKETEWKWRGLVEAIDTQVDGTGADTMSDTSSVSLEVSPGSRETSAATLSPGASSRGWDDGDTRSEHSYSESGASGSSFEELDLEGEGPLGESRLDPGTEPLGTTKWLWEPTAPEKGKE

[4] = molecular target: T4, FKBP8-GST (1–391aa) (human, UniProt Q14318 1-391); experiment: as above
T4 construct: FKBP8, cytosol-exposed domain, residues 1-391, synthetic gene; also called GST-tagged FKBP8; source: E. coli Rosetta pLysS, purified (glutathione beads, SEC); not shown: GST, C-terminal, kept

[5] = molecular target: T5, BCL2L13(1–465aa)-GST (human, UniProt Q9BXK5 1-465); experiment: as above
T5 construct: BCL2L13, cytosol-exposed domain, residues 1-465; also called BCL2L13-GST; source: E. coli Rosetta pLysS, purified (glutathione beads, SEC); not shown: GST, C-terminal, kept

[6] = molecular target: T6, CCPG1-GST (1–212aa) (human, UniProt Q9ULG6 1-212); experiment: as above
T6 construct: CCPG1, cytosol-exposed domain, residues 1-212, synthetic gene; also called GST-tagged CCPG1; source: E. coli Rosetta pLysS, purified (glutathione beads, SEC); not shown: GST, C-terminal, kept
T6 sequence (looked up): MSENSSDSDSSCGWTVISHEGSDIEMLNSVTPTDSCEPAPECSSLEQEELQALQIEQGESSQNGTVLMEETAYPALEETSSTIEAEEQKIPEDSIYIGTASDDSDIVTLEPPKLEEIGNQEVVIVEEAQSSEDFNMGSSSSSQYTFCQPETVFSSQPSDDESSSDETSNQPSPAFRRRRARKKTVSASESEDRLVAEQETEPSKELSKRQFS

[7] = molecular target: T7, GST-FAM134C (250–466aa) (human, UniProt Q86VR2 250-466); experiment: as above
T7 construct: FAM134C, cytosol-exposed domain, residues 250-466, synthetic gene; also called GST-tagged FAM134C; source: E. coli Rosetta pLysS, purified (glutathione beads, SEC); not shown: GST, N-terminal, kept

[8] = molecular target: B5; experiment: microscopy-based bead assay; as a2 (GFP-FIP200 CTR prey) with kinases TBK1, MBP-ULK1, CK2 or Src (Y530F) and 10 mM MgCl2, 100 uM ATP

T1 sequence (Q5MNZ6 whole entry, the tested form may be a part): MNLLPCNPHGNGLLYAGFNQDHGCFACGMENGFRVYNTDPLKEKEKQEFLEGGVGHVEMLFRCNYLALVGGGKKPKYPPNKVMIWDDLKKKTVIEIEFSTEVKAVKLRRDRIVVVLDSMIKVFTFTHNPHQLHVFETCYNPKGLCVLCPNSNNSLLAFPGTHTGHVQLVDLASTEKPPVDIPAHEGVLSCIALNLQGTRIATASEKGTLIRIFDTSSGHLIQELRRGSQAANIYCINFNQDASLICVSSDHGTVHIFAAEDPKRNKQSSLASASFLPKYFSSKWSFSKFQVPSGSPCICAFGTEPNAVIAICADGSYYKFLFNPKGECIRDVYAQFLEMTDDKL
T2 sequence (Q5MNZ6 whole entry): as the sequence (Q5MNZ6 whole entry, the tested form may be a part) above
T5 sequence (Q9BXK5 1-465): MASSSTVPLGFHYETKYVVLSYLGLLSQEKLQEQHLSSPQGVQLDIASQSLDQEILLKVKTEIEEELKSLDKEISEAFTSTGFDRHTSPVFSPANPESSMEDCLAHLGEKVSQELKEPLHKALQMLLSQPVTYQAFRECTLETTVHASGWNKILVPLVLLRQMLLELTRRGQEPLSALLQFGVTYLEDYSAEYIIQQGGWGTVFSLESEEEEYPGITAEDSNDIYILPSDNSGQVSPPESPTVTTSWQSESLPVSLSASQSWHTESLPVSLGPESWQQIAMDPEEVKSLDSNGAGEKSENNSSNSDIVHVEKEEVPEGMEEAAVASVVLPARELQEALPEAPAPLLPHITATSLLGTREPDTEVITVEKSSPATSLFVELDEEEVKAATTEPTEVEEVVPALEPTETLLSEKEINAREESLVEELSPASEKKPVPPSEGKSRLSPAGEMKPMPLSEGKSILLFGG
T7 sequence (Q86VR2 250-466): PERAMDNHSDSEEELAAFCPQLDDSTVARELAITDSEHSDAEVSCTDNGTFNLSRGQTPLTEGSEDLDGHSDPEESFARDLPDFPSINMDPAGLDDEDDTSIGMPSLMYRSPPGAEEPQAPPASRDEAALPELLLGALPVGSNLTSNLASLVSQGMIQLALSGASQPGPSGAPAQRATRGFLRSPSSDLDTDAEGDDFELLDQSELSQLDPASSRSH
T4 sequence (Q14318 1-391): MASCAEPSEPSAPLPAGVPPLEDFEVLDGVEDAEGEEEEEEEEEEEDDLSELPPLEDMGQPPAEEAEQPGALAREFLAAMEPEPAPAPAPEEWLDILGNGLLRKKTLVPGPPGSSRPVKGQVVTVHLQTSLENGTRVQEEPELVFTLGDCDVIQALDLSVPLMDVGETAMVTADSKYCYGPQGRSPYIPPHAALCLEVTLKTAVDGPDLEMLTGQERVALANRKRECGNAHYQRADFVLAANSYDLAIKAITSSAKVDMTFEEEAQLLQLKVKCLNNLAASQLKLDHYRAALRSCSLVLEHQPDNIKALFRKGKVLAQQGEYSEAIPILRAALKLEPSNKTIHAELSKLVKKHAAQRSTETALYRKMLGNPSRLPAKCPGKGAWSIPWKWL

- binding result [1]: binds
B1: GFP-tagged ATG13 IDR (Δ191–205aa) (domain or fragment, UniProt O75143 205-517, looked up)
chain: PPIMGIIIDHFVDRPYPSSSPMHPCNYRTAGEDTGVIYPSVEDSQEVCTTSFSTSPPSQLSSSRLSYQPAALGVGSADLAYPVVFAAGLNATHPHQLMVPGKEGGVPLAPNQPVHGTQADQERLATCTPSDRTHCAATPSSSEDTETVSNSSEGRASPHDVLETIFVRKVGAFVNKPINQVTLTSLDIPFAMFAPKNLELEDTDPMVNPPDSPETESPLQGSLHSDGSSGGSSGNTHDDFVMIDFKPAFSKDDILPMDLGTFYREFQNPPQLSSLSIDIGAQSMAEDLDSLPEKLAVHEKNVREFDAFVETLQ
notes: source: E. coli Rosetta pLysS, purified (glutathione beads, TEV cleavage, SEC); not shown: GST, N-terminal, cleaved; EGFP, N-terminal, kept

- binding result [2]: binds
B2: mCherry-tagged ATG13 IDR (191–517aa) (domain or fragment, UniProt O75143 191-517, looked up)
chain: INLAFMSTRQFERTPPIMGIIIDHFVDRPYPSSSPMHPCNYRTAGEDTGVIYPSVEDSQEVCTTSFSTSPPSQLSSSRLSYQPAALGVGSADLAYPVVFAAGLNATHPHQLMVPGKEGGVPLAPNQPVHGTQADQERLATCTPSDRTHCAATPSSSEDTETVSNSSEGRASPHDVLETIFVRKVGAFVNKPINQVTLTSLDIPFAMFAPKNLELEDTDPMVNPPDSPETESPLQGSLHSDGSSGGSSGNTHDDFVMIDFKPAFSKDDILPMDLGTFYREFQNPPQLSSLSIDIGAQSMAEDLDSLPEKLAVHEKNVREFDAFVETLQ
notes: also called mCh-IDR; source: E. coli Rosetta pLysS, purified (His-Trap, SEC); not shown: mCherry, N-terminal, kept

- binding result [1]: binds
B6: GFP-tagged ATG13 (206–230) (peptide, UniProt O75143 206-230, looked up)
chain: PIMGIIIDHFVDRPYPSSSPMHPCN
notes: ATG13 residues 206-230; also called ATG13 IDR fragment (206–230aa); source: E. coli Rosetta pLysS, purified (glutathione beads, TEV cleavage, SEC on S75); not shown: GST, N-terminal, cleaved; EGFP, N-terminal, kept

- binding result [8]: binds
B7: FUNDC1(1–50aa)-GST (domain or fragment, human, UniProt Q8IVP5 1-50, looked up)
chain: MATRNPPPQDYESDDDSYEVLDLTEYARRHQWWNRVFGHSSGPMVEKYSV
notes: FUNDC1, cytosol-exposed domain, residues 1-50; also called FUNDC1-GST; source: E. coli Rosetta pLysS, purified (glutathione beads, SEC); not shown: GST, C-terminal, kept

Further lines, the binder ahead of its results:

B3: GFP-tagged ATG13 IDR (191–517aa) (domain or fragment, UniProt O75143 191-517, looked up)
chain: INLAFMSTRQFERTPPIMGIIIDHFVDRPYPSSSPMHPCNYRTAGEDTGVIYPSVEDSQEVCTTSFSTSPPSQLSSSRLSYQPAALGVGSADLAYPVVFAAGLNATHPHQLMVPGKEGGVPLAPNQPVHGTQADQERLATCTPSDRTHCAATPSSSEDTETVSNSSEGRASPHDVLETIFVRKVGAFVNKPINQVTLTSLDIPFAMFAPKNLELEDTDPMVNPPDSPETESPLQGSLHSDGSSGGSSGNTHDDFVMIDFKPAFSKDDILPMDLGTFYREFQNPPQLSSLSIDIGAQSMAEDLDSLPEKLAVHEKNVREFDAFVETLQ
notes: Addgene numbers of the GFP-ATG13 constructs are tied to the ranges by their order in the list; also called ATG13 IDR wild-type (WT); source: E. coli Rosetta pLysS, purified (glutathione beads, TEV cleavage, SEC); not shown: GST, N-terminal, cleaved; EGFP, N-terminal, kept
- binding result [1]: binds

B4: GFP-tagged ATG13 (191–230aa) (peptide, UniProt O75143 191-230, looked up)
chain: INLAFMSTRQFERTPPIMGIIIDHFVDRPYPSSSPMHPCN
notes: source: E. coli Rosetta pLysS, purified (glutathione beads, TEV cleavage, SEC on S75); not shown: GST, N-terminal, cleaved; EGFP, N-terminal, kept
- binding result [1]: binds

Binder: B5
- binding result [3]: binds
- binding result [4]: binds
- binding result [5]: binds
- binding result [6]: binds
- binding result [7]: binds
